# Test results from paper PMC6554723.
# Target: dansyl-CaM (dansylated calmodulin), P0DP29
# Experiment: other fluorescence titration
# Details: remark: other sources report otherwise
binder,measurement,value
"purified recombinant RGS14 (Regulator of G Protein Signaling 14), O08773 1-544 (natural protein, here or on the partner: dansyl label (site not stated)) MPGKPKHLGVPNGRMVLAVSDGELTSTSGSQAQGEGRGSSLSIHSLPSGPSSPFSTDEQPVASWAQSFERLLQDPRGLAYFTEFLKKEFSAENVTFWQACERFQQIPASDTKQLAQEAHNIYHEFLSSQALSPVNIDRQAWLSEEVLAQPRPDMFRAQQLQIFNLMKFDSYARFVKSPLYQECLLAEAEGRPLREPGSSHLGSPDTARKKPKLKPGKSLPLGVEELGQLPLAEGRPLRKSFRREMPGGAVNSALRRESQGSLNSSASLDLGFLAFVSSKSESHRKSLGSGEGESESRPGKYCCVYLPDGTASLALARPGLTIRDMLAGICEKRGLSLPDIKVYLVGKEQKALVLDQDCTVLADQEVRLENRITFQLELVGLERVVRISAKPTKRLQEALQPILAKHGLSLDQVVLHRPGEKQLVDLENLVSSVASQTLVLDTLPDAKTREASSIPPCRSQGCLPRTQTKDSHLPPLSSSLSVEDASGSTGKRQTCDIEGLVELLNRVQSSGAHDQRGLLRKEDLVLPEFLQLPSQRPGSQEAPP",stoichiometry N,1
